{
  "source": "paper PMC12238530",
  "about": "“Dynamic SAS-6 phosphorylation aids centrosome duplication and elimination in C. elegans oogenesis” (EMBO Reports, 2025)",
  "key": {"[1]": {"target": "T1, GST-SAS-6 full-length (FL) (C. elegans, UniProt O62479 1-492)", "T1 construct": "SAS-6, C. elegans, full length (1-492); pGEX6P1-GST vector; also called full-length SAS-6 coupled to beads; source: E. coli BL21 (DE3), purified (Glutathione Sepharose 4B); not shown: GST, N-terminal, kept", "T1 sequence (looked up)": "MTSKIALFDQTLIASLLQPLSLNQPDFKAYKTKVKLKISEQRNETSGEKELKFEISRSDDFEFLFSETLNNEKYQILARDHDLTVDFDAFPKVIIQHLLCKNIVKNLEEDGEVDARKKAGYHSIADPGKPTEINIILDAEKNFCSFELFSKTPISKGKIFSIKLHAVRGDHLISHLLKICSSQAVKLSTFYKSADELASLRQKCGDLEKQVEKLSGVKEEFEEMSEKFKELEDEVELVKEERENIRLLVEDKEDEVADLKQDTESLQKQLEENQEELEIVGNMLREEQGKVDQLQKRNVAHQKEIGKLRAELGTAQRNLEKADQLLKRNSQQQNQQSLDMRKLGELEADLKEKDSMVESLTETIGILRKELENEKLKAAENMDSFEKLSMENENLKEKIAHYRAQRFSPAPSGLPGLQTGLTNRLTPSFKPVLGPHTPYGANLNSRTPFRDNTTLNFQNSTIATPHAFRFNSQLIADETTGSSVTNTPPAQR", "assay": "pull-down; GST pulldown of purified His-tagged SAS-6 proteins by purified GST-SAS-6 FL or truncations, with or without pre-phosphorylation by CDK1; α-His immunoblot and CBB staining (Fig. 5A, 5C, 5D)", "settings": "both partners purified"}, "GST-SAS-6(∆N)": {"target": "T2, GST-SAS-6(∆N) (C. elegans, UniProt O62479 171-492)", "T2 construct": "SAS-6, C. elegans, N-terminal head domain deleted (∆1–170), so residues 171-492; also called GST-SAS-6-ΔN; source: E. coli BL21 (DE3), purified (Glutathione Sepharose 4B); not shown: GST, N-terminal, kept", "T2 sequence (looked up)": "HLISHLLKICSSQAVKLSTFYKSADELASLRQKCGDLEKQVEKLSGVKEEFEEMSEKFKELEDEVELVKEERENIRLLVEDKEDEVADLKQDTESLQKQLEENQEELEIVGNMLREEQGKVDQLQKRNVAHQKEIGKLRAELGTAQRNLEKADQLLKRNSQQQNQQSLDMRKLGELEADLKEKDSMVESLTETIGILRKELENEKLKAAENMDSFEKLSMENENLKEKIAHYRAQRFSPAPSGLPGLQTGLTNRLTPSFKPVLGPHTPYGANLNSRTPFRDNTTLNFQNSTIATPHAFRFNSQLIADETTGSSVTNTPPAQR", "assay": "bead recruitment assay; GST-SAS-6 FL or truncations coupled to agarose beads; recruitment of mCherry-His tagged SAS-6 C-terminus seen by fluorescence (Fig. 5B, 5E)", "settings": "both partners purified"}},
  "data": [
    {"binder": "SAS-6-C-mCherry-His (domain or fragment, C. elegans, UniProt O62479 401-492, looked up, SAS-6, C. elegans, C-terminal unstructured region, residues 401-492; Cloned in pET.28a-mCherry; the primer's vector part encodes LFQGP before the NdeI site, so a further N-terminal tag may be there; also called mCherry-His tagged SAS-6 C-terminus; SAS-6 C-terminus; source: E. coli BL21 (DE3), purified (Ni-NTA); not shown: mCherry, C-terminal, kept; His, C-terminal, kept) HYRAQRFSPAPSGLPGLQTGLTNRLTPSFKPVLGPHTPYGANLNSRTPFRDNTTLNFQNSTIATPHAFRFNSQLIADETTGSSVTNTPPAQR", "values": [
      {"measurement": "binding result", "setting": "[1]", "result": "binds"},
      {"measurement": "binding result", "setting": "GST-SAS-6(∆N)", "result": "binds"}
    ]}
  ]
}
